Earlier results on one substance are cited in paper PMC3686494.

In this data set the target is AgCad1 (cadherin) CR9-11 (Anopheles gambiae). Kind of data set: one-site saturation binding.

As to Cry4Ba (from UniProt P05519), the Kd – broadly, a measure of binding affinity in units of concentration – is 13 nM.
